Experimental findings from patent publication US20220184221A1 (NUVOBIO, published 2022) are described below.

The Kd is the equilibrium constant for the complex coming apart.

B1: EP4 (peptide)
peptide: TEDSKTHHH
modifications: also: fluorescein label in FP assay, end not given here
notes: Fluorescein-labelled in the fluorescence polarization assay; also called EP4 peptide

Where no end group is shown, it is not given here. [ ]: non-standard residue; d: D form. Nle = CCCC[C@H](N)C(=O)O

The first assay has as its target T1, recombinant KDM5C (Homo sapiens (Human), UniProt P41229 1-765).
T1 construct: Expressed in SF9 cells from baculovirus, purified on Ni-NTA and detected with an anti-His antibody; also called KDM5C-His6; JARID1CA-c022; not shown: His tag (KDM5C-His6, vector pFB-CT10HF-LIC)
T1 sequence: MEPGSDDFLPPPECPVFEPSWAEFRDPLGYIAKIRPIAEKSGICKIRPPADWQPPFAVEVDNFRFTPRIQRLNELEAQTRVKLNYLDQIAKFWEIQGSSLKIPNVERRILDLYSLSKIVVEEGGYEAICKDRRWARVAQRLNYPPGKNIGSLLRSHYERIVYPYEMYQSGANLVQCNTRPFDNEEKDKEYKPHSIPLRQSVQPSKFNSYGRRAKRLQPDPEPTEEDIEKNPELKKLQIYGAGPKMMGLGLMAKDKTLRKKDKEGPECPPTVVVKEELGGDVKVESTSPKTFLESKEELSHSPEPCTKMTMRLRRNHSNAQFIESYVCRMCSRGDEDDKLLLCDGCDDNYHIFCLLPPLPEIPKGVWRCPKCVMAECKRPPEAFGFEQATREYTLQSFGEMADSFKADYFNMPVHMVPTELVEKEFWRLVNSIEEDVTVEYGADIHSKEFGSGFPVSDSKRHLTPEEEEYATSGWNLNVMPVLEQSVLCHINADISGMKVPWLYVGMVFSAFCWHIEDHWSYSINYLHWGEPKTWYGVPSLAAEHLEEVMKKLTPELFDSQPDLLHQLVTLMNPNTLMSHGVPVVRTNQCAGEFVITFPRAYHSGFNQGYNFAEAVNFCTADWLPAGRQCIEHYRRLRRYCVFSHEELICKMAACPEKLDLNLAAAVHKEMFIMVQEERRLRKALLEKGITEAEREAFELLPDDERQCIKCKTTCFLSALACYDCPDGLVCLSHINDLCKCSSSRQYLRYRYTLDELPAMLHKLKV
The assay can be described thus: fluorescence polarization; fluorescein-labelled peptide, recombinant KDM5C serially diluted. (In general: Polarisation of emitted light reports the rotation of a fluorescent probe.)
As to B1, the Kd turned out to be 110 pM.

The target in another assay is T1, recombinant KDM5C. Description: OPAL peptide arrays on cellulose probed with 1 uM His-tagged KDM5C, anti-His-HRP chemiluminescence.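 Also: binding of target protein to each arrayed peptide after overnight incubation at 4 °C, read as densitometric chemiluminescence signal intensity per spot.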
Protocol: The potential inhibitor peptides were initially screened based on the binding affinity between the peptides and target proteins. All the steps were carried out at room temperature unless otherwise stated. The OPAL cellulose macro arrays are presoaked in 100% ethanol followed by 50% ethanol for 15 min with constant rocking. The membrane is then washed with distilled water three times each of 15 min. The processed membrane is first blocked with 5% nonfat dry milk in Tris buffered saline containing 0.05% Tween 20 (TBST) for 1 hr at room temperature. Finally, the array was equilibrated with peptide binding buffer (50 mM Tris-CI, 350 mM NaCl, 10% glycerol, 0.5 mM DTT and 0.05% Tween20). The array was then incubated with 1 μM of target protein overnight at 4° C. under rotation. The excess protein was washed away by three consecutive 10 min washes with TBST. Each array was then incubated with HRP conjugated anti-His antibody (1:5000) in TBST for 1 hr. The array was then washed thrice each of 10 min. The signals were detected using chemiluminescence. The signal intensities observed were subjected to densitometry analysis using ImageJ software protein array analyzer.
With TDDQKTHHH [EP13], the binding result was “binds”.

As to TDSTKTHHH [EP17], the binding result is on record as “binds”.

For TEDTKTHHH [EP8], the binding result is listed as “binds”.

With TEEQKTHHH [EP9], the binding result is listed as “binds”.

In the case of TEDQKTHHH [EP5], the binding result is given as “binds”.

Take TEENKTHHH [EP14]: the binding result was “binds”.

With TDTQKTHHH [EP2], the binding result is “binds”.

For TEESKTHHH [EP15], the binding result was “binds”.

For the molecule TDDNKTHHH [EP20], the binding result was “binds”.

Consider TDTSKTHHH [EP7], for which the binding result is given as “binds”.

Turning to TDTTKTHHH [EP1], the binding result is reported as “binds”.

With TDTNKTHHH [EP3], the binding result was “binds”.

As to TTQS[Nle]THHH [EP26], the binding result is given as “binds”.

For the molecule TTQT[Nle]THHH [EP36], the binding result was “binds”.

With TTQQ[Nle]THHH [EP31], the binding result is recorded as “binds”.

GAKRHRKVLRDNI [EP43]: the binding result is on record as “binds”.

For TDDQ[Nle]THHH [EP33], the binding result is “binds”.

Turning to TDTQ[Nle]THHH [EP22], the binding result is “binds”.

With TDST[Nle]THHH [EP37], the binding result was “binds”.

For the molecule TEDQ[Nle]THHH [EP25], the binding result is reported as “binds”.

Turning to TEES[Nle]THHH [EP35], the binding result was “binds”.

Regarding TEDS[Nle]THHH [EP24], the binding result was “binds”.

For TDTS[Nle]THHH [EP27], the binding result is on record as “binds”.

For TEEN[Nle]THHH [EP34], the binding result is “binds”.

Take TEDT[Nle]THHH [EP28]: the binding result is listed as “binds”.

For TDTT[Nle]THHH [EP21], the binding result was “binds”.

In the case of TDDN[Nle]THHH [EP40], the binding result is listed as “binds”.

For TEEQ[Nle]THHH [EP29], the binding result is “binds”.

Consider TDTN[Nle]THHH [EP23], for which the binding result is recorded as “binds”.

Turning to GAKRHR[Nle]VLRDNI [EP44], the binding result is given as “binds”.

Turning to SDQQKTHHH [EP10], the binding result was “binds”.

In the case of SDQTKTHHH [EP12], the binding result is recorded as “binds”.

Consider SETQ[Nle]THHH [EP38], for which the binding result was “binds”.

Turning to SETS[Nle]THHH [EP39], the binding result is given as “binds”.

For SDQQ[Nle]THHH [EP30], the binding result was “binds”.

With SDQT[Nle]THHH [EP32], the binding result is reported as “binds”.

Consider TTQSKTHHH [EP6], for which the binding result is on record as “binds”.

TTQQKTHHH [EP11]: the binding result is “binds”.

With TTQTKTHHH [EP16], the binding result is “binds”.

Turning to RTKQTARKSTGG [EP41], the binding result is “binds”.

In the case of SETQKTHHH [EP18], the binding result is on record as “binds”.

Take SETSKTHHH [EP19]: the binding result is “binds”.
